In patent US20250019457A1 (IBIO, published 2025):
Changes are numbered by the printed parent chain.

T1: mouse TROP2 (purified recombinant antigen, Acro Biosystems Cat #TR2-M52H6) (mouse, UniProt Q8BGV3 25-270)
T1 construct: Bought recombinant protein; also called msTROP2
T1 sequence: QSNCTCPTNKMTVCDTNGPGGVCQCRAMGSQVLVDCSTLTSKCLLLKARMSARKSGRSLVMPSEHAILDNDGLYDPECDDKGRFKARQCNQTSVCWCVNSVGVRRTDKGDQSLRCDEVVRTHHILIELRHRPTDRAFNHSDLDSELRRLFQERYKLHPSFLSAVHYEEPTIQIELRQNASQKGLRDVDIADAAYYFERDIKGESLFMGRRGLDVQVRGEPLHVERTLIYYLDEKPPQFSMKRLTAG

T2: human EpCAM (purified recombinant antigen, Acro Biosystems Cat #EPM-H5223) (human, UniProt P16422 24-265)
T2 construct: Bought recombinant protein
T2 sequence: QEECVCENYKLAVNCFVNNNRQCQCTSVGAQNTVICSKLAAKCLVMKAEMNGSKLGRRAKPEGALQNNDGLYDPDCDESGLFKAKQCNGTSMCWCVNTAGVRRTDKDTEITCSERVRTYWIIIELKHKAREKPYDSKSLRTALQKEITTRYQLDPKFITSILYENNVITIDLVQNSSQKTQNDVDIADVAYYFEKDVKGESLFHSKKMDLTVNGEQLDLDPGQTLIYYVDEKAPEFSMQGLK

T3: human TROP2 (purified recombinant antigen, Acro Biosystems Cat #TR2-H5223) (human, UniProt P09758 27-274)
T3 construct: Bought recombinant protein; also called huTROP2
T3 sequence: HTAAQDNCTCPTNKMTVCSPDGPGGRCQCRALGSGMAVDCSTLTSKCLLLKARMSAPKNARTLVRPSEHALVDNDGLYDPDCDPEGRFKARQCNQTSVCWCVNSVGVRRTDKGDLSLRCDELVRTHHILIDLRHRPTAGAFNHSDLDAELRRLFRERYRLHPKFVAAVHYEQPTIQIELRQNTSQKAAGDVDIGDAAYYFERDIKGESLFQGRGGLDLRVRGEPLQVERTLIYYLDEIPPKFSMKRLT

T4: cynomolgus/rhesus TROP2 (purified recombinant antigen, Acro Biosystems Cat #TR2-R52H3) (cynomolgus/rhesus, UniProt P09758 27-274 (human entry))
T4 construct: Bought recombinant protein; also called cyTROP2; cyno/rhesus TROP2
T4 chain: T3 sequence with M36V, S67N, I204V

T5: human Trop2 on cells (FaDu cells, endogenous; ExpiCHO cells overexpressing human Trop2) (human, UniProt P09758 27-323)
T5 construct: Cell-surface form
T5 sequence: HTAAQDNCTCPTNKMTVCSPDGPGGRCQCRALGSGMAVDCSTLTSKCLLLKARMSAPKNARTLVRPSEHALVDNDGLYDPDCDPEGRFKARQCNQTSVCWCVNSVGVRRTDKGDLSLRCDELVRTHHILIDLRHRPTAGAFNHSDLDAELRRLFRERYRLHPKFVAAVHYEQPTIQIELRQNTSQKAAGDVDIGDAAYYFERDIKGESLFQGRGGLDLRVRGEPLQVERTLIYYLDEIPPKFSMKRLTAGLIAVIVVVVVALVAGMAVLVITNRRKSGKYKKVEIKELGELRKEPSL

T6: mouse Trop2 on ExpiCHO cells overexpressing mouse Trop2 (mouse, UniProt Q8BGV3 25-317)
T6 construct: Cell-surface form
T6 sequence: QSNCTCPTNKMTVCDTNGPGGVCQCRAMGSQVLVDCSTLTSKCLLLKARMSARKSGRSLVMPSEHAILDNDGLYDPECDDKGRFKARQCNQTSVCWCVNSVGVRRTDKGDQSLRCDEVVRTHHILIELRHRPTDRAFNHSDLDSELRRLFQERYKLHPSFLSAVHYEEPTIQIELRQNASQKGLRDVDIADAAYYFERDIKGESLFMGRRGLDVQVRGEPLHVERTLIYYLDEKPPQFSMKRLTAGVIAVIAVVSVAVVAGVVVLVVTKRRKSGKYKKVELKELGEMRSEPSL

B1: SD-530939 (antibody, V domains shown)
VH: AVTLDESGGGLQTPGGGLSLVCKASGFDFIDYDMFWVRQAPGKGLEWVGVINRSGSYTNYAPAVKGRATISRDNGQSTLRLQLNNLRAEDTGTYYCARGACTHCWDADSAGYIDAWGHGTEVIVSS
VL: ALALTQPSSVSANPGETVKITCSGGYSGYGWYQQKSPGSAPVTVIYWNDKRPSNIPSRFSGSLSGSTNTLIITGVQAEDEAVYFCGGYDSSPGYVGIFGAGTTLTVL
notes: Chicken/human chimera
B2: SD-589775 (antibody, V domains shown)
VH: B1 VH with L79M
VL: ALALTQPSSVSANPGGTVKITCSGSSGSYGWHQQKSPGSAPVTVIYSSDKRPSDIPSRFSGALSGSTATLTITGVRAEDEAVYYCGGYDGSTDVGIFGAGTTLTVL
notes: Chicken/human chimera; also called parental chimera
B3: SD-802432 (antibody, V domains shown)
VH: B1 VH with G49A, A115T
VL: ALALTQPSSVSANPGETVKITCSGGSGSYGWFQQKSPGIAPVIVIFNDDNRPSDIPSRFSGSKSGSTGTLTITGVQAEDEAVYFCGGYDGSTDAGIFGAGTTLTVL
notes: Chicken/human chimera
B4: SD-320063 (antibody, V domains shown)
VH: B1 VH with E46A, L79V, R98K, A100V, Y112N
VL: ALALTQPSSVSANPGETVEITCSGGSGNYGWFQQKSPGSAPVTVIYNNNYRLSDIPSRFSGSASGSTATLTITGVRVEDEAVYFCGSADSTYVGLFGAGTTLTVL
notes: Chicken/human chimera
B5: SD-168804 (antibody, V domains shown)
VH: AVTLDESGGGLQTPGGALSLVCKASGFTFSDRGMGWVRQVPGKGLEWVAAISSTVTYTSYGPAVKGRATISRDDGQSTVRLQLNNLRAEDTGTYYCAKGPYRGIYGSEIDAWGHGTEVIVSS
VL: ALALTQPSSVSANPGETVKITCSGGSYSYGSYYYGWYQQKSPGSAPVTVIYDNDKRPSGIPSRFSGSKSGSTGTLTITGVQAEDEAVYFCGSTDSSSTAAFGAGTTLTVL
notes: Chicken/human chimera
B6: SD-661765 (antibody, V domains shown)
VH: QVQLVETGGDLVKPGGSLKLSCAASGFTFSTYGMSWVRQTPDKRLEWVATISSGGIYTYYSDSVKGRFTISRDNAKNTLYLQMSSLKSEDTAMYYCARDGNYLGFDFWGQGTTLTVSS
VL: DIVMTQSPASLAVSLGQRATISCRASESVESYGNSFMNWYQQKPGQPPKLLIYRASNLESGIPARFSGSGSRTDFTLTINPVEADDVATYYCQQSYEDPRTFGGGTKLEIK
notes: Mouse/human chimera
B7: SD-813149 (antibody, V domains shown)
VH: EVKLDESGGGLVKPGGSLKLSCAASGFTFSSYTMSWVRQTPEKRLEWVATINSDGIYTYYPDSVKGRFTISRDNAKNTLYLQMSSLKSEDTAMYYCTRVHYYGYDAMDYWGQGTSVTVSS
VL: EIQMTQSPASLSASVGETVTITCRASENIYSYLAWYQQKQGKSPQLLVYSAKTLAEGVPSRFSGSGSGTHFSLKINSLQPEDFGSYYCQHHYGIPLTFGAGTKLELK
notes: Mouse/human chimera
B8: SD-175533 (antibody, V domains shown)
VH: QIQLQESGPGLMKPSQSLSLTCTVTGYSITSDYAWNWIRQFPGNKLEWMGHITYSGSTSYNPSLKSRISISRDTSKNQFFLQLNSVTTGDTATYYCARGGSTLISGDFDYWGQGTTLTVSS
VL: DIVLTQSHKFMSTSVGDRVSITCKASQDVSTAVAWYQQKPGQSPKLLIYSASYRYTGVPDRFTGSGSGTDFTFTISSVQAEDLAVYYCQQHYSTPLTFGAGTKLELK
notes: Mouse/human chimera

Target: T1, mouse TROP2 (purified recombinant …)
Assay: SPR, Carterra LSA; ratio of KD values, reference huTROP2

Fold difference in affinity (huTROP2:msTROP2) [fold] | Binder
2.1 | B1
1 | B2
2.9 | B3
6.9 | B4
1.2 | B5

Target: T1, mouse TROP2 (purified recombinant …)
Assay: SPR, Carterra LSA; antibody captured on anti-human IgG, antigen injected

Binder | binding result
B6 | no binding (tested: 1 µM top concentration)
B7 | no binding (tested: 1 µM top concentration)
B8 | no binding (tested: 1 µM top concentration)

Target: T2, human EpCAM (purified recombinant …)
Assay: as above

Binder | binding result
B1 | no binding (tested: 1 µM top concentration)
B2 | no binding (tested: 1 µM top concentration)
B3 | no binding (tested: 1 µM top concentration)
B4 | no binding (tested: 1 µM top concentration)
B6 | no binding (tested: 1 µM top concentration)
B7 | no binding (tested: 1 µM top concentration)
B5 | no binding (tested: 1 µM top concentration)
B8 | no binding (tested: 1 µM top concentration)

Target: T3, human TROP2 (purified recombinant …)
Assay: SPR, Carterra LSA; antibody captured on anti-human IgG, antigen injected; 1:1 fit

Kd [nM] | koff [s⁻¹] | kon [M⁻¹ s⁻¹] | Binder
0.46 | 0.000155 | 337000 | B1
0.35 | 0.000223 | 643000 | B2
0.1 | 5.53e-05 | 542000 | B3
0.23 | 3.42e-05 | 148000 | B4
1.65 | 0.000574 | 348000 | B6
0.43 | 0.000163 | 377000 | B7
11.5 | 0.000294 | 25500 | B5
0.2 | 3.96e-05 | 197000 | B8

Target: T3, human TROP2 (purified recombinant …)
Assay: as above
Remark: another data set of the same source

Kd [nM] | Binder
0.46 | B1
0.35 | B2
0.1 | B3
0.23 | B4
1.65 | B6
0.43 | B7
11.5 | B5
0.2 | B8

Target: T1, mouse TROP2 (purified recombinant …)
Assay: as above

Kd [nM] | Binder
0.96 | B1
0.35 | B2
0.3 | B3
1.59 | B4
13.6 | B5

Target: T4, cynomolgus/rhesus TROP2 (purified …)
Assay: as above

Kd [nM] | Binder
0.6 | B1
0.48 | B2
0.13 | B3
0.11 | B4
1.82 | B6
0.38 | B7
15.3 | B5
0.1 | B8

Target: T5, human Trop2 on cells (FaDu cells, …)
Assay: flow cytometry on ExpiCHO cells overexpressing human Trop2, percent of cells bound

EC50 (read off the curve) [nM] | Binder
~0.02 | B1
~0.02 | B2
~0.02 | B3

Target: T6, mouse Trop2 on ExpiCHO cells …
Assay: flow cytometry on ExpiCHO cells overexpressing mouse Trop2, percent of cells bound

EC50 (read off the curve) [nM] | Binder
~0.02 | B1
~0.02 | B2
~0.02 | B3
~0.03 | B4
~5 | B5

Target: T5, human Trop2 on cells (FaDu cells, …)
Assay: flow cytometry on FaDu cells (endogenous human Trop2); average of n=1-3 experiments

EC50 [nM] | Binder
0.673 | B1
0.607 | B2
0.738 | B3
1.99 | B4
1.07 | B6
2.19 | B7
1.05 | B5
2.36 | B8

Target: T3, human TROP2 (purified recombinant …)
Assay: MSD assay: biotinylated TROP2 on streptavidin plate, antibody titrated, anti-human SULFO-TAG detection

EC50 (read off the curve) [nM] | Binder
~0.2 | B1
~0.2 | B3
~0.2 | B6
~0.2 | B7
~0.3 | B8
